Assay results from US20130196320A1, “METHOD FOR IMPROVING CLEAVAGE OF DNA BY ENDONUCLEASE SENSITIVE TO METHYLATION” (CELLECTIS, priority 2010, published 2013).
“And” between values parts separate entries of the source, which are not always exact repeats. Equal entries are not always repeated.

B1: I-CreI: wild-type I-CreI meganuclease (… homing endonuclease), SEQ ID NO: 1, recombinant Cterm His-tag (protein, listed as Chlamydomonas reinhardtii)
chain: MNTKYNKEFLLYLAGFVDGDGSIIAQIKPNQSYKFKHQLSLTFQVTQKTQRRWFLDKLVDEIGVGYVRDRGSVSDYILSEIKPLHNFLTQLQPFLKLKQKQANLVLKIIEQLPSAKESPDKFLEVCTWVDQIAALNDSKTRKTTSETVRAVLDSLSEKKKSSP
modifications: C-terminal His-tag

Assays:
[1] = tested on: RAG target in human RAG1 gene, 293H cells; assay: Meganuclease-induced mutagenesis assay at RAG recognition site; type: cell-based; details: Empty vector, 1 μM 5-aza-2′-deoxycytidine, RAG locus
Procedure: The human 293H cells (ATCC) were plated at a density of 1.2×10^6 cells per 10 cm dish in complete medium (DMEM supplemented with 2 mM L-glutamine, penicillin (100 IU/ml), streptomycin (100 μg/ml), amphotericin B (Fongizone: 0.25 μg/ml, Invitrogen-Life Science) and 10% FBS). The cells were pre-treated with 5-aza-deoxycytidine at 0.2 μM or 1 μM, 48 hours before transfection and the treatment was maintained 48 hours post-transfection. The medium was changed every day. The cells were transfected with 3 μg of DNA plasmids encoding meganuclease for RAG or 2.5 μg of each monomer CAPNS1 using Lipofectamine 2000 transfection reagent (Invitrogen) according to the manufacturer's protocol.
The efficiency of the meganuclease to promote mutagenesis at its endogenous recognition site was evaluated by sequencing the DNA surrounding the meganuclease cleavage site. Two days post-transfection, genomic DNA was extracted. 200 ng of genomic DNA were used to amplify (PCR amplification) the endogenous locus surrounding the meganuclease cleavage site. PCR amplification is performed to obtain a fragment flanked by specific adaptor sequences [adaptor A: 5′-[…]-NNNN-3′(SEQ ID NO: 46) and adaptor B, 5′-[…]-3′ (SEQ ID NO: 47)] provided by the company offering sequencing service (GATC Biotech AG, Germany) on the 454 sequencing system (454 Life Sciences). The primers sequences used for PCR amplification were:
RAG_F1: 5′-[…]-NNNN-[…] (SEQ ID NO: 57) and
RAG_R1: 5′-[…]-[…]-3′ (SEQ ID NO: 58) and CAPNS1_J3: 5′-[…]-NNNN-[…] (SEQ ID NO: 59) and CAPNS1_R3: 5′-[…]-[…]-3′ (SEQ ID NO: 60). Sequences specific to the locus are underlined. The sequence NNNN in primer F1 is a Barcode sequence (Tag) needed to link the sequence with a PCR product. The percentage of PCR fragments carrying insertion or deletion at the meganuclease cleavage site is related to the mutagenesis induced by the meganuclease through NHEJ pathway in a cell population, and therefore correlates with the meganuclease activity at its endogenous recognition site. 5000 to 10000 sequences were analyzed per conditions.

C1234 DNA target = assay: In vitro single turn over cleavage assay with C1234 duplexes; type: biochemical
Procedure: FIG. 5: In vitro cleavage of unmethylated or methylated C1234 by I-Cre I wild type. A constant amount of C 1234 duplex (50 nM) was incubated with an excess of I-Cre I (1.5 μM, final concentration) in the reaction buffer (10 mM Tris-HCl, 150 mM NaCl, pH8) at 37° C. Cleavage reaction was triggered by the addition of MgCl2 and then stopped after different time lengths by the addition of the stop buffer. This was followed by one hour of incubation at 37° C. to digest I-Cre I and release free DNA molecules. Cleaved and uncleaved DNA products were separated by PAGE using a TGX Any kD precast gel (Bio-Rad), stained with SYBR Green and then quantified using Quantity One software (Bio-Rad). Disappearance of substrate (uncleaved DNA) is plotted as a function of time.
To investigate the influence of C1234 methylation on the nuclease activity of I-Cre I, in vitro single turn over cleavage assays were performed with either unmethylated or methylated C1234 duplexes (unmethylated C1234 composed of SEQ ID NO: 31+SEQ ID NO: 32, C1234_Me full composed of SEQ ID NO: 35+SEQ ID NO: 38, C1234_Me-6a/-5b composed of SEQ ID NO: 33+SEQ ID NO: 36, C1234_Me-3a/-2b composed of SEQ ID NO: 34+SEQ ID NO: 37, C1234_Me-3a composed of SEQ ID NO: 34+SEQ ID NO: 32, C1234_Me-2b composed of SEQ ID NO: 31+SEQ ID NO: 37, respectively). A constant amount of C1234 duplex (50 nM) was incubated with an excess of I-Cre I (1.5 μM, final concentration) in the reaction buffer (10 mM Tris-HCl, 150 mM NaCl, pH8) at 37° C. Cleavage reaction was triggered by the addition of MgCl2 and then stopped after different time lengths by the addition of the stop buffer (45% glycerol, 95 mM EDTA, 1.5% (w/v) SDS, 1.5 mg/mL proteinase K and 0.048% (w/v) bromophenol blue, final concentrations). This was followed by one hour incubation at 37° C. to digest I-Cre I and release free DNA molecules. Cleaved and uncleaved DNA products were separated by PAGE using a TGX Any kD precast gel (Bio-Rad), stained with SYBR Green and then quantified using Quantity One software (Bio-Rad).
To test the influence of C 1234 methylation on I-Cre I cleavage activity, single turn over cleavage assays in vitro were performed with unmethylated (composed of SEQ ID NO: 31+SEQ ID NO: 32) or with different methylated forms of C1234 (FIG. 5). In these assays C1234 was premixed to a large excess of recombinant meganucleases before addition of MgCl2. After different time lengths, the reaction was quenched by addition of a stop buffer, the remaining substrate was separated from the reaction product and then quantified. In these conditions, substrate disappearance was a first order process. The rate constant of this process corresponded to the turn over number (kcat) of the meganuclease. Turn over number measurement was not affected by affinity differences between methylated and unmethylated C1234 for I-Cre I because in our experimental conditions, the totality of C1234 was bound to the meganuclease at the beginning of reaction. In addition, this measurement was not affected by the rate limiting step of product release (Wang J, Kim H H, Yuan X, Herrin D L: Purification, biochemical characterization and protein-DNA interactions of the I-CreI endonuclease produced in Escherichia coli. Nucleic Acids Res 1997, 25:3767-3776) because the complex I-Cre I:cleaved C1234 product was artificially disrupted by the proteinase K and SDS present in the stop buffer.

Row | Molecule | mutagenesis, PCR fragments carrying a mutation [1] | mutagenesis, PCR fragments carrying a mutation ([1]; listed as 5-aza-2′-deoxycytidine) | kcat (C1234 DNA target; C1234_Me full (fully methylated)) | kcat (C1234 DNA target; C1234_Me-2b) | kcat (C1234 DNA target; C1234_Me-3a) | kcat (C1234 DNA target; C1234_Me-3a/-2b) | kcat (C1234 DNA target; C1234_Me-6a/-5b) | effect of methylation on catalytic activity (C1234 DNA target; C1234 methylated in position −2b) | effect of methylation on catalytic activity (C1234 DNA target; C1234 methylated in position −3a) | effect of methylation on catalytic activity (C1234 DNA target; C1234 methylated in positions −3a and −2b (within the cleavage region)) | effect of methylation on catalytic activity (C1234 DNA target; C1234 methylated in positions −6a/−5b (outside the cleavage region)) | kcat (C1234 DNA target; unmethylated C1234)
1 | Nc1ncn([C@H]2C[C@H](O)[C@@H](CO)O2)c(=O)n1 [5-aza-2′deoxycytidine, reference compound] | 0.04% | 0.04 ± 0.05% | – | – | – | – | – | – | – | – | – | –
2 | B1 | – | – | <0.0001 min⁻¹ | <0.0001 min⁻¹ | 0.057 ± 0.006 min⁻¹ | 0.0002 ± 0.003 min⁻¹ | 0.02 ± 0.007 min⁻¹ | almost totally inhibited it | didn't affect 1-Cre I catalytic activity | strongly affected the catalytic activity of I-Cre I | did not affect I-Cre I catalytic activity | 0.025 min⁻¹ and 0.025 ± 0.002 min⁻¹
